Laboratory results: patent publication US7070943B2 (priority 1998, dated 2006)

Assays:
Assay type in all cases: cell-based, Human
U937 cells = experiment: Growth and viability of U937 cells, trypan blue exclusion; conditions: U937, 170 nM (20 μg/ml)
Text: FIG. […] The percentage of dead cells was estimated based on the trypan blue exclusion test. The percentage of cells in the respective phases was estimated flow cytometrically based on their DNA content. Apoptotic cells (Ap) were recognized as the cells with fractional DNA content (sub-G1), as previously described;
Human histiocytic lymphoma U-937 cells were purchased from American Type Culture Collection (Manassas, Va., USA) and were maintained in RPMI 1640 medium supplemented with 10% fetal bovine serum, 100 U/ml of penicillin, 100 μg/ml streptomycin and 2 mM glutamine (all from Life Technologies, Grand Island, N.Y., USA). The suspension cultures were passaged by re-seeding the cells at a density of 1×10^5 cells/ml. The cells were studied during their exponential and asynchronous growth, generally within 72 hours of their re-seeding in medium with fresh serum, before reaching density of 8×10^5 cells/ml. The cultures were periodically tested for Mycoplasma infection by staining of cytocentrifuge preparations with the DNA fluorochrome 4,6-diamidino-2-phenylindole (DAPI; Molecular Probes, Eugene, Oreg., USA).
ONCONASE®, provided by Alfacell (Bloomfield, N.J., USA), was diluted in RPMI to the final concentrations as shown in the Results below and figure legends above. […]

cyclin E = experiment: Cyclin E expression by multiparameter flow cytometry in U937 cells; conditions: U937 cells growing in presence of drug
Protocol: (§1) Following incubations in the absence or presence of ONCONASE®, the cells were washed with phosphate-buffered saline (PBS) and fixed in suspension in either ice-cold 80% ethanol or absolute methanol for up to 24 h. After fixation, the cells were washed twice with PBS and then suspended in 1 ml of 0.25% Triton X-100 (Sigma, St. Louis, Mo., USA) in PBS on ice for 5 min. The cells were then centrifuged (300 g, 5 min), the cell pellet suspended 100 μl PBS containing 0.5 μg of the anti-cyclin (or anti-CKI) mAb and 1% bovine serum albumin (BSA; Sigma), and incubated for 2 h at room temperature. […]
(§2) Cellular fluorescence was measured with the ELITE ESP flow cytometer/cell sorter (Coulter, Miami, Fla., USA) using either argon ion laser (emission at 488 nm) alone or combined with helium-cadmium laser (emitting UV light). In the first case, fluorescence signals were collected using the standard configuration of the flow cytometer (green fluorescence, representing directly or indirectly FITC-labeled antibodies; red fluorescence representing CYCHROME® tagged anti-pRB^T mAb). In the second case, DNA content was analyzed based on DAPI fluorescence (blue emission) excited by UV light, while the anti-pRB^P− mAb (FITC) and anti-pRB^T (Cy-Chrome®) related emission was excited with blue light laser.

total pRB = experiment: Total pRB in U937 cells, anti-pRB^T mAb flow cytometry
Text: (§3) Also shown are cells from the culture at higher cell density (>10^6 cells/ml) where proliferation declined because of cell crowding (d). The cells reacting with anti-pRB^P− were in G0/1 phase (open arrows). The dashed line indicates the upper level of background fluorescence, i.e. of the cells pretreated with alkaline phosphatase. The percentage of cells reacting with anti-pRB^P− mAb was increased in the ONCONASE®-treated and crowded cultures compared to the control. No significant changes in expression of pRB detected by the antibody that reacts with this protein regardless of its phosphorylation status (anti-pRB^T) were observed between ONCONASE®-treated and control cells (not shown).
(§4) The status of phosphorylation of pRB in individual cells was monitored using a combination of anti-pRB antibodies, one specifically detecting underphosphorylated pRB (anti-pRb^P− mAb) and another which reacts with total pRB, regardless of its phosphorylation (anti-pRB^T mAb). […] The cells were then rinsed with PBS containing 1% BSA and their pRB associated green (anti-pRB^P−) and red (anti-PRB^T) fluorescence was measured by flow cytometry.
(§5) Cellular fluorescence was measured with the ELITE ESP flow cytometer/cell sorter (Coulter, Miami, Fla., USA) using either argon ion laser (emission at 488 nm) alone or combined with helium-cadmium laser (emitting UV light). […]

p27^KIP1 [1] = experiment: p27^KIP1 expression by flow cytometry in U937 cells; conditions: U937, 170 nM, 72 hours
Protocol: as §1, §2

p27^KIP1 [2] = experiment: Western blot of p27^KIP1 in U937 cells; conditions: U937, 17 and 170 nM, 72 h; not detected in Exp cells
Text: (§6) To reveal specificity of the antibodies that were used, a standard immunoblotting procedure was used on cellular lysates.

p21^WAF1/CIP1 [3] = experiment: p21^WAF1/CIP1 expression by flow cytometry in U937 cells; conditions: U937, 170 nM, 72 hours
Protocol: as §1, §2

p21^WAF1/CIP1 [4] = experiment: Western blot of p21^WAF1/CIP1 in U937 cells; conditions: U937, 170 nM, 72 hours
Text: as §6

underphosphorylated pRB = experiment: pRB phosphorylation in U937 cells, anti-pRB^P− mAb flow cytometry; conditions: U937, 170 nM
Text: as §3, §4, §5

B1: ONCONASE®: basic protein of 12,000 MW isolated from oocytes or early embryos of Rana pipiens, homologous to pancreatic RNase A (protein, UniProt P22069 1-104, looked up)
Protein P-30: QDWLTFQKKHITNTRDVDCDNIMSTNLFHCKDKNTFIYSRPEPVKAICKGIIASKNVLTTSEFYLSDCNVTSRPCKYKLKKSTNKFCVTCENQAPVHFVGVGSC
U937 cells; initial 72 hours of treatment
  cell proliferation suppressed: approximately 50%
U937 cells; initial 72 hours, trypan blue
  cells dead: < 10%
Cyclin E
  expression of cyclin E: not significantly changed
Total pRB
  effect on total pRB (anti-pRB^T): no effect
p27^KIP1 [1]
  increase in p27^KIP1: Over four-fold
p27^KIP1 [2]
  p27^KIP1 bands, Western blot: strong bands
p21^WAF1/CIP1 [3]
  increase in p21^WAF1/CIP1: Over four-fold
p21^WAF1/CIP1 [4]
  p21^WAF1/CIP1 band, Western blot: band only in the ONCONASE®-treated cells
Underphosphorylated pRB; 48 h (control 2.4%)
  proportion of cells stainable with anti-pRB^P−: 40.5%
Underphosphorylated pRB; 72 h (control 2.4%)
  proportion of cells stainable with anti-pRB^P−: 43.3%
